Experiment: soluble on expression in E. coli; label from the status in PepcDB or PDB records

Row | Sequence | soluble on expression in E. coli
1 | MLAEIKGLNEECGVFGIWGHENAAQVSYYGLHSLQHRGQEGAGIVVNNGEKIVGHKGLGLISEVFSRGELEGLNGKSAIGHVRYATAGGSEVANVQPLLFRFSDHSMALAHNGNLINAKMLRRELEAEGSIFQTSSDTEVLLHLIKRSTKDSLIESVKEALNKVKGAFAYLLLTGNEMIVALDPNGFRPLSIGKMGDAYVVASETCAFDVVGATYIRDVEPGELLIINDEGIHVDRFTNEVDHAICSMEYIYFARPDSNIAGINVHAARKNMGKRLAAEAPIEADVVTGVPDSSISAAIGYAEATGIPYELGLIKNRYVGRTFIQPSQELREQGVKMKLSAVRGVVEGKRVVMIDDSIVRGTTSKRIVRMLREAGATEVHVRIASPPLKYPCFYGIDIQTRKELIAANHTVEEIREMIGADSLTFLSEDGLVDAIGRPYEGKYGGLCMAYFNGDYPTALYDYEQELLESMK | not soluble
2 | MAHHHHHHMFKQRDNEYHPPMTVDPSGGGVTTSAGVFGEVGMGNVASPFLDGPAAVAGSRKRGRDIRSLDRFRAVVYGEDGFRRLHAMVARNPVLMYPPDGIEAARARVMVRKAELQSQLRSALGHREHNRNPADNGDDDVFALFEARRRAESDVHPATEGEEVPRQPASEHAPLPSSLASIRQDEELATYHHKQLDSYLRLLYEFNHATFVKLPMEDTLRLLSRCGKEAVAHIVEYETQVRLRRQSRIRDLNELRQEQAALEERRLAIDDAEQARLVQSAELRQAELDLELDNGVVKAEPPDDGSADEDVKVILETSSSSVHFASLPAGDSPEENMDGIVMAVEDEGIQYT | not soluble
3 | MGSDKIHHHHHHMNIQEKSKIEYRSRINRVMDYIDIHLDQPLELKSIAEIANFSPFHFHRIFTFLIGETPIDYIQRLRIEKAACRLRENMDISISEIADSCGFCTVSLFSRVFKKFFGLTPSQFRKTERPVYAQDGILFSKNGQMVSKNLTPKHVLSPQLCSVKFKISYFMETKIEVKEMPDMKAVYCRHMGAFKEIVKAYEKLIKWAEPRGLYIPNVTKSATVTHDDPSVTELSKVRQSACIIVEGDVKGEGEIGNLVIPGGQYAVGHFELGTEDFEKAWNTMCKWFTESGYQQGDGCTYELYHNSHRTHPENKHIVDICIPIKPL | not soluble
4 | MLTPRFDIQPAVSVILPTFDRAPLLASAIESVVAQNFAEWELIVVDDGSSDETFEIVDGYLNQHANIRYMKHRNRKAALSRNAGIQAAFGRYITFLDSDDLYLPEHLESRLHLLESMPEVRLISGGFVCEGDPWVRDRDDPEKLIHVSECIAGATMFGRRELFLDIGGFRALDYAEDTDLWERAARSHKVLKIDQPVSYIYRRSPGSITRTYKPAKPLEHHHHHH | soluble
5 | MTSNFREYLFAPDHPRLAELRELDAYAYRTVARRPGTFTGDLVAGWTPLYKNEFRGVTEDGTLREDVHCLEPARAGEAAPVPEMVAAAADLLAGLDDESRERIRYRVDAPEWQTWANPEFMQFDTGIRLEFQSEDVRRKALRLMASSLSPQGYELARNMMLINGFLGEVVGLPGILNEFSYNMAIYGTPHETRPWGWQVFGHHLAVNCFVVDGRMVISPLFLGAEPNEIDEGEHAGVTSFGTRIELGLALMAELTPEQRCAATVYEQMVDPAMPPGRVHPGDERHLAGAFQDNRQIPFEGVRVADLSCRAQELVLEIVEQFVALLPDGPRAARMREVRKMLSQTWFSWIGGHRPGDVFYYRVQSPVIIAELDHHCGVFLDYDTPKPFHIHTVVRTPHGNDYGRAYLRQWEQGHRLEHHHHHH | soluble
6 | SGKMVSVINTVDTSHEDMIHDAQMDYYGTRLATCSSDRSVKIFDVRNGGQILIADLRGHEGPVWQVAWAHPMYGNILASCSYDRKVIIWREENGTWEKSHEHAGHDSSVNSVCWAPHDYGLILACGSSDGAISLLTYTGEGQWEVKKINNAHTIGCNAVSWAPAVVPGSLIDHPSGQKPNYIKRFASGGCDNLIKLWKEEEDGQWKEEQKLEAHSDWVRDVAWAPSIGLPTSTIASCSQDGRVFIWTCDDASSNTWSPKLLHKFNDVVWHVSWSITANILAVSGGDNKVTLWKESVDGQWVCISDVNKGQGSVSASVTEGQQNEQ | soluble
7 | MGSDKIHHHHHHMLKQKTLKDSFSLSGKGLHTGLDLTVTFNPAPDNHGYKIQRIDLEGQPTIDAVADNVTETTRGTVLSKNGVKVSTVEHGMAALYALGIDNCLIQVNGPEFPILDGSAQYYVQEIERVGTEEQSAVKDFYIIKSKIEFRDESTGSSIIVLPDENFSLNVLVSYDSTIIPNQFATLEDMHNFKDEVAASRTFVFVREIEPLLSAGLIKGGDLDNAIVIYERKMSQESYDKLADVMGVPHMDADQLGYINHKPLVWPNECARHKLLDVIGDLALIGKPIKGRIIATRPGHTINNKFARQMRKEIRLHEIQAPTYDCNREPVMDVNRIRELLPHRYPFQLVDKVIEMGASYIVGIKNITANEPFFQGHFPQEPVMPGVLQIEAMAQVGGLLVLNSVDEPERYSTYFMKIDGVKFRQKVVPGDTLLFRVELLAPIRRGISTMKGYAFVGEKVVCEAEFMAQIVKNK | not soluble
8 | MQGVKERFLPLGNSGDRAPRPPDGRGRVRPRTQDGVGNHTMARIPKTLKFVVVIVAVLLPVSPRRGPWLGKSAPGAGRGQGDGDTAGMPGPGHLRPGMSGQDELAVGVRGRTGSPGWAGGTRPRGSREAVPLAAPSPRREGSSRIERGRESRWNP | soluble
9 | MGSDKIHHHHHHMKIDRSVIRSLALFAKMADDELDGLLTHATSRLVPPGEAIFEQGQSAAHFFLLIHGRLKVTQVTHDGQQIIVRMVHPGDLFGFARALQRSDYPGTATTAAESVILSWQTDLWPQFVEQNPHLAVSAMQTIGQRLEEAHTRIREMSTQEVERRVAHAVLRLSQQAGRKELDGIRIDFPISRQDIAEMTGTTLHTVSRILSSWESKGLVQGGRQKLLVCNLPGLAQLAEGETSQV | not soluble
10 | SNAMLKREMNIADYDAELWQAMEQEKVRQEEHIELIASENYTSPRVMQAQGSQLTNKYAEGYPGKRYYGGCEYVDVVEQLAIDRAKELFGADYANVQPHSGSQANFAVYTALLQPGDTVLGMNLAQGGHLTHGSPVNFSGKLYNIVPYGIDESGKIDYDEMAKLAKEHKPKMIIGGFSAYSGVVDWAKMREIADSIGAYLFVDMAHVAGLIAAGVYPNPVPHAHVVTTTTHKTLAGPRGGLILAKGGDEELYKKLNSAVFPSAQGGPLMHVIAGKAVALKEAMEPEFKVYQQQVAKNAKAMVEVFLNRGYKVVSGGTENHLFLLDLVDKNLTGKEADAALGRANITVNKNSVPNDPKSPFVTSGIRIGSPAVTRRGFKEAEVKELAGWMCDVLDNINDEATIERVKAKVLDICARFPVYA | soluble
11 | MAHHHHHHMATAKELGPGGLREDGRPIFIATDHTKFTPSTKQELTDQQKLAWKSFQLWRTTLGIERRDNVYKTLTNSDYTNFRLGTHILGTPYPVIETVPGFFDVFKAVRWYEHAISLAVALGYGYWIRSKASTRYSRMMPMSRTSITMLTFISTDLCFCYRSMYRLTGYLPNEYECFKYGVLEDKDKLQRKKELWEKYANHKREWCRRYDYHVYGIRPGETFSFFSACMIPSWEPRYNTRTDYPPRKNPYFLTSTPLRDTFLESPFTYEIPKDETVPLVRERPELKYLYRGPGRTTPPSDEK | not soluble
12 | MSLLNQKIQNPNPDELMIEVDLCYELDPYELKLDEMIEAEPEPEMIEGLPASDALTPADRYLELFEHVQSAKIFPDSKTFPDCAPKMDPLDILIRYRKVRRHRDFDLRKFVENHFWLPEVYSSEYVSDPQNSLKEHIDQLWPVLTREPQDHIPWSSLLALPQSYIVPGGRFSETYYWDSYFTMLGLAESGREDLLKCMADNFAWMIENYGHIPNGNRTYYLSRSQPPVFALMVELFEEDGVRGARRYLDHLKMEYAFWMDGAESLIPNQAYRHVVRMPDGSLLNRYWDDRDTPRDESWLEDVETAKHSGRPPNEVYRDLRAGAASGWDYSSRWLRDTGRLASIRTTQFIPIDLNAFLFKLESAIANISALKGEKETEALFRQKASARRDAVNRYLWDDENGIYRDYDWRREQLALFSAAAIVPLYVGMANHEQADRLANAVRSRLLTPGGILASEYETGEQWDKPNGWAPLQWMAIQGFKMYGDDLLGDEIARSWLKTVNQFYLEQHKLIEKYHIADGVPREGGGGEYPLQDGFGWTNGVVRRLIGLYGEPEGGSHHHHHH | soluble
13 | MGSDKIHHHHHHMSIPLAFIICTEPGRLESQSLMLASSIRKFCGNLKDTPIYSFHPRVGEPISHQTQEAFAALQVIHQQIPINQEFHEYYLANKPLVCAYAEQNIDAEILVFLDSDKCLFAEPTEFLLPENCNVRVRPEYGQGIGSTGSQDPQEWYWQRLYQVLGVKREIFVNTPIGNKRIRAYWNSGLVAVRRSAGIFTAWKENFTKVMHLDITPPQGIYFVEQSVLSVTLCALVDNIEHFSLNYSYPLPLHNRLSPELRLQDWDDITSIHYFNLFFYNDWNTQIKKLKKFNITSDKYKWLSQEVVRLNMSRTSVLHRYMLAIRRIEQKLQKFNIKINLSSLIEKTAKF | not soluble
14 | MKGRWAKYVATGVMLAMLAACSSKPTDRGQQYKDGKFTQPFSLVNQPDAVGAPINAGDFAEQVDQIRSASPRLYTNQSNVYNAVQNWLRSGGDTRTMRQFGIDAWQMEGTDNYGNVQFTGYYTPVVQARHTRQGAFQYPIYSMPPKRGRLPSRAQIYAGALSDKYILAWSNSLMDNFIMDVQGSGYIDFGDGSPLNFFSYAGKNGWPYRSIGKVLIDRGEVKKEDMSMQAIREWGEKHSEAEVRELLEQNPSFVFFKPQSFAPVKGASAVPLIGRASVASDRSIIPPGTTLLAEVPLLDNNGKFSGQYELRLMVALDVGGAIKGQHFDIYQGIGPDAGHRAGWYNHYGRVWVLKSAPGAGNVFSG | soluble
15 | MSETVYTAKDYKSGQPRWCPGCGDHAFLNSLHKAMAELGVAPHNIAVISGIGCSSRLPYYVNTYGFHTIHGRAAAVATGAKVANPDLTIWQISGDGDGLAIGGNHFIHAVRRNIDLNMILLNNRIYGLTKGQYSPTSDRGFVSKSSPYGTVEDPFHPAELCFGARGRFFARCVAVDGPASVEVLKAAANHKGASVVEVLQNCVIFNDGTHESVATKEGRSKNAIYLEHGKPMLFGENKEFGLMQEGFGLKVVKLGENGVTEKDILIHNAHSMDNTLQLKLALMEGPDFPIALGVIRDVEAPTYNDAVAEQIDEVKAKKKYHNFQELLMTNETWEVK | not soluble
16 | MTTLYSIQEKYQQLLNLAEQLDPEALKDTLESIEDELETKAENVAFVIKELEGQSLILDVEIKRLSERKNTINNNVKRLKQSLHDAMLVANKQKIKTNLFTLDIRKNPHSVFVEDESKLINYLVEQPKKLDKTKLKDDLKKGIDVPGAVLVQTERLQIK | not soluble
17 | MTTTPIADQAAVLAEGMADQTPSEALEAFGAEQAELDAAGVPSGIATAGSLMPDASLLDVHGNATTLQQVREGRPAVVVFYRGAWCPYCNLALRTYERELAPRLAERGVSMIAVSPQRPDGSLTMAQTNDLSYDVLSDPGNHIGRALGIVTRPTDRVQHAQASLGLDLTEVNADGTPDILMPTVAIVDAEGVLRWIDVHPNYVTRSEPARILEALARAVR | not soluble
18 | MKKLSFFLIATLSLGACSTATSPTGRHQVFSGVSQQQLNQLGEQAFVEIKAKEKISGNVRQNAYVRCVVDALVTELPLQWRHVKWETVLFLNEEPNAFALPGGKVGVNTGIFRAAKNQEQLAAVLGHEIGHVVSRHHEERITWQLGTQAGLGLLGVLAGTAYGDSAATAVNQIGGLTAQAAFLLPGSRTQEREADIVGQRLMAQAGFDPIQAVYLWKNMLAIAGQRPPQWLSTHPDPTNRIRQLEQQSAVLASVYAQARDAGRVPHCSPAALEHHHHHH | not soluble
19 | MSLARANIDTDAILPKQFMKSIERTGFGVHLFDGFRYLDAGSLGMDCSRRPENPDFILNWPRYREASILLAGANFGCGSSREHAPWAIEQYGFRVLIASSFADIFRDNCFKNGLLPIVLASETMDRLFDEVSHQVGFELEVDLPRQTISCPAGWCIEFEMDSIRKAHLLEGIDEIGSTLSLSKKIGDFERARRQSHPWFFGAEGHHHHHH | not soluble
